PMC9490040, “Mechanistic insight into the RNA-stimulated ATPase activity of tick-borne encephalitis virus helicase”

Target: NS3H (NS3 helicase domain) WT (Tick-borne encephalitis virus strain …, UniProt Q01299 1662-2110)
Test: fluorescence anisotropy; 1 mM Mg2+; no nucleotide; apparent KD; 20 mM Tris-HCl pH 7.5, 100 mM NaCl, 1 mM MgCl2, 7.5% glycerol; 45 min at 30 C; […]
Conditions: protein: recombinant; tags: N-terminal 10xHis (pET-19b); label: 5' 6-FAM; single strand

Sequence of NS3H (NS3 helicase domain) WT (Q01299 1662-2110): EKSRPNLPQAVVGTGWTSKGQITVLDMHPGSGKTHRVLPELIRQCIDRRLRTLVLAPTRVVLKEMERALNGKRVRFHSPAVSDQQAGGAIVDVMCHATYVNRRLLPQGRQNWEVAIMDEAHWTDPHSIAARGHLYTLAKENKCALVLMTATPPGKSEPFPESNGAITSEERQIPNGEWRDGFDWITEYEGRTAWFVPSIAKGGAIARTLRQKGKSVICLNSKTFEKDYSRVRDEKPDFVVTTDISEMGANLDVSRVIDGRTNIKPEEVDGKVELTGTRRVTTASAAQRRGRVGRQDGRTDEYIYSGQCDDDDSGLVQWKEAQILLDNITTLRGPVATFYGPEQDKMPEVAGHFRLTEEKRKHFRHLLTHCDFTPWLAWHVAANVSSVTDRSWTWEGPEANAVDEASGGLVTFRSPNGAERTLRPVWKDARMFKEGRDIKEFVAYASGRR

AGAUUUUCUUGC (ssRNA) [6-FAM-ssRNA12]
Kd: 49.7 ± 9.3 nM
